{"source": "patent US20030027180", "about": "“Nucleic acid shuffling” (published 2003)", "binders": {"B1": {"name": "13x16 #1 (ssDNA)", "DNA": "GAAAACTGCTCATATGATTGATTAGCCCGCTGCTCGTCCAAATGACGGCTCAGCTCTGTATTTTTAGCGTCTGTGAGACAGAACCTGCGACCGGTGCGTCGTCTCACAGTCTACTGTATCTTCGCGTACCTTAGGTTTACCCGCTGCTCGTCCAAATGACGGCTCTCTGTGAGACAAAACCTGCGACCGGTGCGTCGTCTCACAGTAAGAGGGTTCTTGGATA"}, "B2": {"name": "complement strand of minimal 40-mer (ssDNA)", "DNA": "CTGTGAGACAAAACCTGCGACCGGTGCGTCGTCTCACAGA"}, "B3": {"name": "minimal 40-mer (ssDNA)", "DNA": "TCTGTGAGACGACGCACCGGTCGCAGGTTTTGTCTCACAG"}}, "key": {"streptavidin [1]": {"molecular_target": "T1, streptavidin (UniProt P22629 P22629:25-183)", "T1 sequence (P22629 25-183, one chain of several)": "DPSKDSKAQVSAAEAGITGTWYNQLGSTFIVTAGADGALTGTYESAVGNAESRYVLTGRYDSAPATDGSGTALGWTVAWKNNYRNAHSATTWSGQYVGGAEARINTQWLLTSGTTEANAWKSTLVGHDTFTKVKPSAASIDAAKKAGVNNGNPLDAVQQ", "test": "filter; 100 mM NaCl, 50 mM Tris pH 8.0, 5 mM MgCl2, room temperature, human genomic DNA competitor", "details": "tags: Sigma; chain copies: 4; label: 5'-32P", "procedure": "(§1) Binding affinity assays: Affinities for streptavidin were measured using a radioactive filter binding assay. Pools or individual clones were amplified by PCR. One pmol was radiolabeled with 15 units T4 PNK and 10 μCi γ-³²P ATP (NEN) in T4 PNK buffer at 37° C., 1 h. Labeled DNA was extracted twice with phenol-chloroform and purified twice by gel filtration to remove ATP. The DNA was then denatured in water at 95° C. for 5 min together with 2 μg human genomic DNA (to block nonspecific DNA binding) per 5 fmol labeled DNA, and chilled in ice water for 5 mins. 5 fmol of labeled DNA plus 2 μg unlabeled human genomic DNA was added to varying amounts of streptavidin (0 to 1024 nM) in 50 μL of 100 mM NaCl, 50 mM Tris-Cl pH 8.0, 5 mM MgCl₂ (“assay buffer”), giving a final concentration of labeled DNA of 0.1 nM. The DNA and streptavidin were incubated at room temperature for 30 minutes. A multiscreen-HA 96 well nitrocellulose filter plate (Millipore), which retains protein-DNA complexes much better than free DNA, was pre-washed with 125 μL assay buffer then loaded with each assay sample. The samples were rapidly filtered on a vacuum manifold and the membranes washed twice with 250 uL of assay buffer. The membrane for each well was punched out from the plate using a stylus and the bound radioactive label quantitated by phosphorimager together with 1 fmol of unreacted probe."}, "streptavidin [2]": {"molecular_target": "T1, streptavidin", "test": "filter; no streptavidin affinity", "details": "tags: Sigma; chain copies: 4", "procedure": "as §1"}, "streptavidin [3]": {"molecular_target": "T1, streptavidin", "test": "filter; affinity comparable to error-prone PCR evolved sequences; no own Kd printed", "details": "tags: Sigma; chain copies: 4; stem-loop predicted by Mfold", "procedure": "as §1"}}, "data": [{"binder": "B1", "values": [{"measurement": "Kd", "setting": "streptavidin [1]", "result": 4.7, "unit": "nM"}]}, {"binder": "B2", "values": [{"measurement": "binding result", "setting": "streptavidin [2]", "result": "no binding"}]}, {"binder": "B3", "values": [{"measurement": "binding result", "setting": "streptavidin [3]", "result": "binds"}]}]}
